From patent US5442053A, “Salts and mixtures of hyaluronic acid with pharmaceutically active substances, pharmaceutical compositions containing the same and methods for administration of such compositions” (Fidia, S.p.A., priority 1983, dated 1995)

System: corneal epithelium
Assay: Healing activity of EGF vehicled in hyaluronic acid, epithelial lesion of rabbit cornea
Format: in vivo, rabbit (male albino New Zealand)
Conditions: for healing of lesions in the corneal epithelium: single eye
Procedure: The experiments were carried out on male albino New Zealand rabbits (average weight 1.8 kg). The animals, after a period of adaptation of about 5 days, underwent epithelial lesion of the cornea in suitable conditions of local anesthetic with Novesina (4%). The lesion consisted of a monocular scarification of a circular area in the optic zone effected by a concave glass cylinder (.phi. 3mm) with a sharp edge.
The animals were subdivided into groups, each group consisting of 5 animals, and subjected to pharmacological treatment by conjunctival instillation as follows:
Treatment was effected on the right eye (RE) by conjunctival instillation of 2 drops every 8 hours for 3 total administrations.
Healing of the corneal epithelium was evaluated by observation of the eye and photographic documentation with a slit lamp at various intervals after scarification: 0, 8 hours, 16 hours, 24 hours, 32 hours, 40 hours, and 48 hours.

B1: Epidermal growth factor (protein, UniProt P01133 23-1207, looked up)
Pro-epidermal growth factor: PQHWSCPEGTLAGNGNSTCVGPAPFLIFSHGNSIFRIDTEGTNYEQLVVDAGVSVIMDFHYNEKRIYWVDLERQLLQRVFLNGSRQERVCNIEKNVSGMAINWINEEVIWSNQQEGIITVTDMKGNNSHILLSALKYPANVAVDPVERFIFWSSEVAGSLYRADLDGVGVKALLETSEKITAVSLDVLDKRLFWIQYNREGSNSLICSCDYDGGSVHISKHPTQHNLFAMSLFGDRIFYSTWKMKTIWIANKHTGKDMVRINLHSSFVPLGELKVVHPLAQPKAEDDTWEPEQKLCKLRKGNCSSTVCGQDLQSHLCMCAEGYALSRDRKYCEDVNECAFWNHGCTLGCKNTPGSYYCTCPVGFVLLPDGKRCHQLVSCPRNVSECSHDCVLTSEGPLCFCPEGSVLERDGKTCSGCSSPDNGGCSQLCVPLSPVSWECDCFPGYDLQLDEKSCAASGPQPFLLFANSQDIRHMHFDGTDYGTLLSQQMGMVYALDHDPVENKIYFAHTALKWIERANMDGSQRERLIEEGVDVPEGLAVDWIGRRFYWTDRGKSLIGRSDLNGKRSKIITKENISQPRGIAVHPMAKRLFWTDTGINPRIESSSLQGLGRLVIASSDLIWPSGITIDFLTDKLYWCDAKQSVIEMANLDGSKRRRLTQNDVGHPFAVAVFEDYVWFSDWAMPSVMRVNKRTGKDRVRLQGSMLKPSSLVVVHPLAKPGADPCLYQNGGCEHICKKRLGTAWCSCREGFMKASDGKTCLALDGHQLLAGGEVDLKNQVTPLDILSKTRVSEDNITESQHMLVAEIMVSDQDDCAPVGCSMYARCISEGEDATCQCLKGFAGDGKLCSDIDECEMGVPVCPPASSKCINTEGGYVCRCSEGYQGDGIHCLDIDECQLGEHSCGENASCTNTEGGYTCMCAGRLSEPGLICPDSTPPPHLREDDHHYSVRNSDSECPLSHDGYCLHDGVCMYIEALDKYACNCVVGYIGERCQYRDLKWWELRHAGHGQQQKVIVVAVCVVVLVMLLLLSLWGAHYYRTQKLLSKNPKNPYEESSRDVRSRRPADTEDGMSSCPQPWFVVIKEHQDLKNGGQPVAGEDGQAADGSMQPTSWRQEPQLCGMGTEQGCWIPVSSDKGSCPQVMERSFHMPSYGTQTLEGGVEKPHSLLSANPLWQQRALDPPHQMELTQ
modifications: Pro-epidermal growth factor
notes: EGF (Epidermal growth factor), dissolved in saline (0.5 mg/5 ml)
Question: Which results are given for B1?
Answer: healing of lesions in the corneal epithelium (0 hours after scarification): +; healing of lesions in the corneal epithelium (8 hours after scarification): +; healing of lesions in the corneal epithelium (16 hours after scarification): +; animals healed (24 hours after scarification): 4/5; healing of lesions in the corneal epithelium (24 hours after scarification): - and +; healing of lesions in the corneal epithelium (48 hours after scarification): -
